This assay addresses C1q human protein (human) (UniProt P02745). Description: ELISA, plates coated with the antibody, C1q human protein titrated (the concentration axis is that of C1q), Mean Absorbance (OD Units). (In general: An ELISA detects its analyte on a solid surface through an enzyme-linked reagent.)

Sequence of C1q human protein (human) (P02745 23-245 limits assumed, chain 1 of 3): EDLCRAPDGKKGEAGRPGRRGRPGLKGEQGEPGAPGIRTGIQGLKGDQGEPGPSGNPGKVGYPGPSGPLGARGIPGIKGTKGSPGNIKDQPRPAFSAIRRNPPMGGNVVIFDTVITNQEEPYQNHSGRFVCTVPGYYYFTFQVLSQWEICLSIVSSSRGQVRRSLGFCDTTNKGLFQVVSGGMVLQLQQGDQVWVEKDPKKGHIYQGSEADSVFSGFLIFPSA
Sequence of C1q human protein (human) (P02746 28-253 limits assumed, chain 2 of 3, further chain): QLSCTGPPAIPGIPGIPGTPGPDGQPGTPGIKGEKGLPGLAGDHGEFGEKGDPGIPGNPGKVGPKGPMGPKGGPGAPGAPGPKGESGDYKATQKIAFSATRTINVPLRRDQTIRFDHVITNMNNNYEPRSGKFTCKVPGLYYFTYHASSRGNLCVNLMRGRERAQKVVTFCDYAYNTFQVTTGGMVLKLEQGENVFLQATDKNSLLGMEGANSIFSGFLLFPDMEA
Sequence of C1q human protein (human) (P02747 29-245 limits assumed, chain 3 of 3, further chain): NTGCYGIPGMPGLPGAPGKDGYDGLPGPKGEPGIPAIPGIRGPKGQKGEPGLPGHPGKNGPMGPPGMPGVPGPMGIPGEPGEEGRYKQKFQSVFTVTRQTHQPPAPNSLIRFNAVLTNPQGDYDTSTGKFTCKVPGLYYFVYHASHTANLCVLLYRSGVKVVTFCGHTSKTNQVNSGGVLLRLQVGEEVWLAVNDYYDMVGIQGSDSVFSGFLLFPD

Remicade (pos. control) (antibody) registered a half-maximal effective concentration (EC50 (read off the curve)) of 20 µg/mL.

As usually defined, the EC50 (read off the curve) is the midpoint of the concentration-response curve. Read a high EC50 (read off the curve) as a less potent agent.

(Values after patent publication US20250206836A1.)
